The numbers were not newly measured in paper PMC7023894, which cites them from elsewhere.

pKd: −log10 of the molar value.

The data set has as its target Ezrin FERM (Homo sapiens) (UniProt P15311).
UniProt P15311, sequence (P15311 1-299): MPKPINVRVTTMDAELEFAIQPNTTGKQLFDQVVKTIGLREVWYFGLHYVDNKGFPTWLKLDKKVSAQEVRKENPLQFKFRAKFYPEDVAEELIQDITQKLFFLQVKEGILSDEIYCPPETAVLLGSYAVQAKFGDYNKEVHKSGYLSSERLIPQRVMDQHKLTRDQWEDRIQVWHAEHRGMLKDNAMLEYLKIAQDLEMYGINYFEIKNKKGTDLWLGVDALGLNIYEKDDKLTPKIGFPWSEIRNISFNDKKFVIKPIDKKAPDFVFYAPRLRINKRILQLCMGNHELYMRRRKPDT

For orientation: pKd means the Kd on a negative log10 scale, so that one unit is a factor of ten. Take “Transgelin-2 CLR region (from UniProt P37802)”: the pKd is 7.13.
